Measured values taken from patent publication US20240122985A1, “ANTIBODIES, COMBINATIONS COMPRISING ANTIBODIES, BIOMARKERS, USES & METHODS” (KYMAB LIMITED, priority 2016, published 2024).
“And” between values parts separate entries of the source, which are not always exact repeats. Equal values may be shown once.

Test system: Rhesus Macaque Graft versus Host Disease (GvHD) model
Excerpt: The effectiveness of antibody 2D10 IgG4PE as a monotherapy prophylactic for the prevention of GvHD was examined in a Rhesus Macaque model of haploidentical hematopoietic stem cell transplantation (HSCT).
All transplants were between half-sibling pairs that are mismatched at one MHC haplotype (“haploidentical-HCTs”). Recipient animals had irradiation based pre-myeloablative pre-transplant conditioning using a linear accelerator. Dose rate: 7cGy/min. Dose 1020 cGy given in 4 fractions. The leukapheresis donor animal underwent GCSF mobilisation and underwent leukapheresis using a Spectra Optia apheresis machine.
2D10 IgG4PE was dosed at 10 mg/kg i.v. according to a planned dosing schedule to take place on Day −2, Day+5, Day+12, Day+19, Day+26, Day+33, Day+40, Day+47 post-transplant.
Samples were taken during the course of the study to monitor donor chimerism (Table 4) and white blood cell counts. The primary end point was based on survival, with a survival to 15 days deemed to be a sign of successful prophylactic therapy (and compared to the documented survival of 6-8 days with no prophylaxis; Miller et al. 2010, supra). Though full pathology and histology with GvHD grading scores, markers of T-cell proliferation and activation (such as Ki-67 and granzyme B) and gene array analysis are planned, they were not available for inclusion at the time of drafting.
Scoring of clinical symptoms was based on observational assessments and clinical chemistry, classified according to the criteria set out in Table 5.
A further rhesus macaque GvHD study was conducted to determine the effect of combined post-HSCT prophylaxis with 2D10 IgG4PE and rapamycin. The study was performed as described in Example 7, with dosing as follows: 2D10 IgG4PE was administered i.v. at 10 mg/kg on Day −2, Day +5, Day+12, Day+19, Day+26, Day+33, Day+40, Day+47 and Day+56 post-transplant. Rapamycin was administered at a loading dose of 0.1 mg/kg i.m. on Day −14, followed by daily i.m. maintenance doses of 0.025 mg/kg until the scheduled termination of the study at Day+100. Rapamycin dosing was adjusted to maintain serum trough levels within the range 5-15 ng/mL.
This was a cohort study in NHP designed to determine the clinical, immunologic and molecular outcomes of OX40L blockade during allogeneic HCT. Two cohorts of transplant recipients were studied: (1) Allogeneic transplants using the OX40L-blocking human IgG4-PE antibody 1D05 (described as ‘KY1005’ in this Example 11) as monotherapy for GVHD prophylaxis (abbreviated as ‘KY1005’; n=4). KY1005 was given at a dose of 10 mg/kg starting on Days −2 and then once weekly until discontinuation on Days 54 (FIG. 8E). […] (2) Allogeneic transplants using KY1005 in combination with Sirolimus (Rapamycin) ([…]) for GVHD prophylaxis (abbreviated as ‘KY1005/Siro’; n=5). KY1005 was given at a dose of 10 mg/kg starting on Days −2 and then once weekly until discontinuation on Days 54 (FIG. 8P). […] These two OX40L-blockade groups were compared to the following cohorts, aspects of which have been described previously (Furlan et al., 2015; Furlan et al., 2016; Miller et al., 2010) (1) Autologous transplants (abbreviated as ‘Auto’, n=6 for clinical and flow cytometric data and n=4 for transcriptomic analysis) (2); Allogeneic transplants with no GVHD prophylaxis (abbreviated as‘No Rx’, n=11 for clinical and flow cytometric data and n=4 for transcriptomic analysis). (3) Allogeneic transplants using Sirolimus monotherapy for GVHD prophylaxis (LC laboratories, abbreviated as ‘Siro’, n=11 for flow cytometric analysis, n=4 for transcriptomic analysis).

[1] = Rhesus HSCT, 2D10 IgG4PE 10 mg/kg i.v. weekly from Day −2, one line per animal, brackets = experimental failure

Molecule: KY1005: antibody used for GVHD immunoprophylaxis in NHP, measured by antigen (OX40L) capture assay; not tied to 02D10 in this part
- MST (Example 11 (FIG. 7C)): 19.5 days
- GVHD-free survival (Example 11, NHP (FIG. 7C)): 19.5 days
- Survival (Table 8, per animal, Seattle): 16 day (2×) and 26 day and 23 day

B1: 2D10 IgG4PE: fully human anti-human OX40L monoclonal antibody, human IgG4-PE; VH Seq ID No:34, VL Seq ID No:48; 2D10-1 to -4 are stable pools (antibody, V domains shown)
VH: EVQLVESGGGLVQPGGSLRLSCAASGFTFSNYAMNWVRQAPGKGLEWVSTISGSGGATRYADSVKGRFTISRDNSRNTVYLQMNSLRVEDTAVFYCTKDRLIMATVRGPYYYGMDVWGQGTTVTVSS
VL: DIQMTQSPSSLSASVGDRVTITCRASQSISSYLNWYQQKPGKAPNLLIYAASSLQSGVPSRFSGSGSETDFTLTISSLQPEDFATYYCQQSHSVSFTFGPGTKVDIK
modifications: human IgG4-PE constant regions; 02D10 - VH Amino Acid Sequence; 02D10 - VL Amino Acid Sequence
- median survival time, MST (Example 9, post-HSCT prophylaxis, Rhesus macaque (FIG. 7)): 19 days
- Survival Duration [1]: 22 days and 16 days (2×) and 26 days
- Survival Duration (days) [1]: (24) days
- survival of animals after allogeneic HCT (Rhesus macaque): prolonged survival
- Gross necropsy, visceral GvHD (animal #4): no overt visceral GvHD
- adverse dosing side effects (rhesus monkey, in vivo, iv, 10 mg/kg): No serious adverse dosing side effects
